In article PMC7890179, “Adiponectin forms a complex with atherogenic LDL and inhibits its downstream effects” (Journal of Lipid Research, 2020):

B1: Human recombinant full-length adiponectin protein (composed of the LMW, MMW, and HMW isoforms) with a C-terminal FLAG sequence (natural protein, UniProt Q15848 19-244, looked up)
chain: ETTTQGPGVLLPLPKGACTGWMAGIPGHPGHNGAPGRDGRDGTPGEKGEKGDPGLIGPKGDIGETGVPGAEGPRGFPGIQGRKGEPGEGAYVYRSAFSVGLETYVTIPNMPIRFTKIFYNQQNHYDGSTGKFHCNIPGLYYFAYHITVYMKDVKVSLFKKDKAMLFTYDQYQENNVDQASGSVLLHLEVGDQVWLQVYGEGERNGLYADNDNDSTFTGFLLYHDTN
notes: adiponectin, human, full-length recombinant protein; A mixture of trimers (LMW), hexamers (MMW) and HMW multimers; Secreted from HEK293 cells, so the signal peptide is probably absent (surmised); also called AdN; human recombinant full-length AdN; source: bought: BioVendor cat. no; RD172023100, produced in HEK293 cells

Tests used:
[1] = biological target: copper-oxidized low density lipoprotein (human (endogenous in human plasma)); test: ELISA; native LDL or oxLDL (1 μg/ml) captured on anti-apoB monoclonal antibody HUC20 on a 384-well plate; recombinant adiponectin added for 1 h at 25°C, washed with PBS, detected with anti-adiponectin polyclonal antibody; apparent Kd, 1:1 reversible binding assumed
[2] = biological target: copper-oxidized low density lipoprotein (human (endogenous in human plasma), oxidized with 7.5 μM CuSO4 for 16 h (residues not stated)); test: as above; conditions: both partners purified

Molecule | Kd [1] [nM] | Kd [2] [nM]
globular form of adiponectin protein with an N-terminal His-tag sequence (domain or fragment; other documents disagree on this pair) | 45.3 | –
B1 | – | 15.7
